Data: publication PMC10626419, “DONSON is required for CMG helicase assembly in the mammalian cell cycle” (EMBO Reports, 2023)

Target: T1, Recombinant mouse CMG helicase (CDC45‐MCM‐GINS) (mouse, UniProt Q9Z1X9 1-566; P97310 1-904; P25206 1-812; P49717 1-862; P49718 1-734; P97311 …)
T1 construct: CDC45, mouse; MCM2, mouse; MCM3, mouse; MCM4, mouse; MCM5, mouse; MCM6, mouse; MCM7, mouse; PSF1 (GINS subunit), mouse; fourth GINS subunit, mouse; PSF3 (GINS subunit), mouse; SLD5 (GINS subunit), mouse; The complex was captured on IgG Sepharose and released with TEV protease, so one subunit carried a cleavable tag; source: budding yeast strain YCE1259 co-expressing the 11 subunits, purified (IgG …)
Experiment: co-IP; purified recombinant mouse DONSON and CMG incubated in 25 mM Hepes‐KOH pH 7.6, 200 mM KOAc, 0.02% NP‐40, 10 mM MgOAc, 1 mM DTT, 0.1 mg/ml BSA for 30 min on ice; CMG isolated on magnetic beads coupled to MCM6 antibody, 1 h on ice; immunoblotting (Fig 1C)
Conditions: both partners purified

B1: Recombinant mouse DONSON (natural protein, UniProt Q9QXP4 1-560, looked up)
chain: MAVSVPGYSPSFKRPPETVRLRRKRSRDHGAAVPASLPEPAPRRAALAAGLPLRPFPTAGGRGGAAATIARRNPFARLDNRPRVSDEASEEPLRGPQGASGPLLDSNEENNLLWEDTSSHERTGTELSQSQRVSLSESDTWSSDGTELPVDWSIKTRLLFTSSQPFSWADHLKAQEEAQGLVQHCRATEVTLPQSIQDPKLSTALRCAFQQALVYWLHPAFSWLPLFPRIGADRKMAAKTSPWSADETLQHALMSDWSVSFTSLYNLLKTKLCPYFYVCSYQFTVLFRAAGLAGSSVITALISPTTRGLREAMRNEGIEFSLPLLEEIGHKKKVRDPSLESEEEQAVSDEDEEESFSWLEEIGVQDQIKKPDVISIKLRKEKHEVQMDHRPESVVLVKGLNTFKLLNFLINCKSLVATSGAQAGLPPTLLSPIAFRGASMQMLKARSSNVKTQALSGYRDKFSLDITGPVMPHALHSMSMLLRSSQRGSFSAGLYAHEPTAVFNVGLSLDKELDRKVAREDLANCGLHPKTLEQLSQRPVLGKSSLRSVEMSDYILSWRS
notes: DONSON, mouse; also called His‐SUMO‐DONSON (before cleavage); source: E. coli Rosetta (DE3) pLys, purified (Ni‐NTA, ULP1 cleavage, Superdex 200)
- binding result: binds
